First the molecules themselves.
T1: cynomolgus monkey transferrin receptor 1 (cynomolgus monkey (Macaca fascicularis), UniProt Q5RDH6 89-760 (Pongo abelii entry), limits assumed)
T1 construct: also called cyTfR1; Cyno TfR1
T1 chain: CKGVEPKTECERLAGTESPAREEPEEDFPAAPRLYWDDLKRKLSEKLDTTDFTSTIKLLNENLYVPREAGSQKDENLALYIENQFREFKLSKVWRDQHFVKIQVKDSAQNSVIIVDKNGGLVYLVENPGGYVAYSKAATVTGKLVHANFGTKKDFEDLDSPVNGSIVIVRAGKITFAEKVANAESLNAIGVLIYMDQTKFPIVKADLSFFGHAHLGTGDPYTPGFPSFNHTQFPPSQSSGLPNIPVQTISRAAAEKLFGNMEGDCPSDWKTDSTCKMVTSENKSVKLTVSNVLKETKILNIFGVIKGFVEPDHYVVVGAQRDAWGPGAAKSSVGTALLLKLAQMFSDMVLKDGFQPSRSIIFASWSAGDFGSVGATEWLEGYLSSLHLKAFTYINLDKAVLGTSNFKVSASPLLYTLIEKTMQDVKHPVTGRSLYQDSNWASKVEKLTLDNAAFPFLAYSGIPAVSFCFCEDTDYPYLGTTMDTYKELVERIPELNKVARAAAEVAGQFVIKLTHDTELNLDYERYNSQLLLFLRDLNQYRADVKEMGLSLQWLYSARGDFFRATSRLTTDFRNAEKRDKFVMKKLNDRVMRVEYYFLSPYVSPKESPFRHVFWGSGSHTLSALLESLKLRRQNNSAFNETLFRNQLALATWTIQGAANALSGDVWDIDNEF

B1: 4-O12 (antibody, V domains shown)
VH: EVQLQQSGAELVRPGASVKLSCTASGFNIVDDYMHWVKQRPEQGLEWIGWIYPENADTEYASKFQGKATITADTSSNTAYLQLSSLTSEDTAVYYCTTATGTGWFAYWGQGTLVTVSA
VL: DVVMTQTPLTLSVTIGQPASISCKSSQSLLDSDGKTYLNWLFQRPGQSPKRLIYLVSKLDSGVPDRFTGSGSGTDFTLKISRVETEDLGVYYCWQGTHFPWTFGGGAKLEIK
notes: Tested as a mouse monoclonal IgG
B2: 8-K6 (antibody, V domains shown)
VH: QVHLQQPGAELVKPGASVKMSCKASGYTFTSYWITWVKQRPGQGLEWIGDIFPNSGRTNYDEKFKSKATLTVDTSSSTAYMQLSSLTSEDSAVYFCAREGNFGSLDYWGQGTTLTVSS
VL: QIVLTQSPAIMSASPGEKVTMTCSANSNLNYMNWYHQKSGTSPKRWIYDTSKLASGVPARFSASGSGTSYSLTISSMEAEDAATYYCQQWSRNPLTFGAGTRLELK
notes: Tested as a mouse monoclonal IgG; also called 8-K06
B3: 8-D15 (antibody, V domains shown)
VH: QVQLKESGPGLVAPSQSLSITCTVSGFSLTSYAITWVRQSPGKGLEWLGLIWTGGGTNYNSALKSRLSISKDNSKSQVFLKMNSLQTDDTARYYCARIYDGYYRYFDVWGTGTTVTVSS
VL: RIVLTQTPKFLLVSAGDRVTMTCKASQSVSNDVAWYQQKPGQSPKLLIYYASNRYTGVPDRFTGSGYGTDFTFTISTVQAEDLAVYFCQQDYSSPWTFGGGTKLEIK
notes: as for B1
B4: 3-E5 (antibody, V domains shown)
VH: EIQMKQSGAELVKPGASVKISCKASGYSFTGYNMNWVKQSHGKSLEWIGNINPYYGSTGYNQKFKGKATLTVDKSSSTAYMQLNSLTSEDSAVYYCARGDYGYDEGTWFAYWGQGTLVTVSA
VL: DIVMSQSPSSLAVSAGEKVTMSCKSSQSLLNSRTRKNYLAWYQQKPEQSPKLLIYWASTRESGVPDRFTGSGSGTDFTLTISSVQAEDLAVYYCKQSYNLPFTFGSGTKLEIK
notes: Tested as a mouse monoclonal IgG; also called 3-E05
B5: 5-H12 (antibody, V domains shown)
VH: QIQLQQSGPELVRPGASVKISCKASGYSFTDYCINWVNQRPGQGLEWIGWIYPGSGNTRYSERFKGKATLTVDTSSNTAYMQLSSLTSEDSAVYFCAREDYYPYHGMDYWGQGTSVTVSS
VL: DIVLTQSPTSLAVSLGQRATISCRASESVDGYDNSFMHWYQQKPGQPPKLLIFRASNLESGIPARFSGSGSRTDFTLTINPVEAADVATYYCQQSSEDPWTFGGGTKLEIK
notes: as for B1
B6: 9-D4 (antibody, V domains shown)
VH: QVQLQQSGTELARPGASVKLSCKASGFTFTDYGINWVKQRTGQGLEWIGEIYPSSGNSYYNEKFKAKATLTADKSSSTAYMELRSLTSEDSAVYFCARSTYYGSPIDYWGQGTTLTVSS
VL: DIVMTQSHKFMSTPVGDRVSITCKASQDVDTTVAWYQQKPGQSPKLLIYWASTRQIGVPDRFTGSGSGTDFTLTISNVQSEDLADYFCQQYSTYPLTFGGGTKLEIK
notes: Tested as a mouse monoclonal IgG; also called 9-D04
B7: 8-O17 (antibody, V domains shown)
VH: QVQLKESGPGLVAPSQSLSITCTVSGFSLTNYGVHWVRQPPGKGLEWLVVIWNDGSATYNSALESRLSISKDNSKSQVFLKMNSLQTDDTAMYYCARHESSNPFAYWGQGTLVTVSA
VL: DILLTQSPAILSVSPGERVSFSCRASQSIGTSIHWYQQRTNGSPRLLIKSASESIAGIPSRFSGSGSGTDFTLSINSVESEDIADYYCQQNNRWPYTFGGGTKLEIK
notes: as for B1
B8: 3-A4 (antibody, V domains shown)
VH: EVQLQQSGAELVRPGASVKLSCTASGFNIKDDYMYWVKQRPEQGLEWIGWIDPENGDTEYASKFQDKATVTADTSSNTAYLQLSSLTSEDTAVYYCTLWLRRGLDYWGQGTSVTVSS
VL: DIVMTQAAPSVPVTPGESVSISCRSSKSLLHSNGYTYLFWFLQRPGQSPQLLIYRMSNLASGVPDRFSGSGSGTAFTLRISRVEAEDVGVYYCMQHLEYPFTFGGGTKLEIK
notes: Tested as a mouse monoclonal IgG; also called 3-A04
B9: 4-J22 (antibody, V domains shown)
VH: EVQLQQSGAELVRSGASVKLSCTASGFNIKDYYIHWVKQRPEQGLEWIGWIDPENADTEYAPKFQGKATMTPDTSSNTAYLQLSSLTSEDTAVYYCYAWDYSMDYWGQGTSVTVSS
VL: DVVMTQTPLSLSVSLGDQASISCRSSQSLVHSNGNTYLHWYLQKPGQSPKLLIYKVSNRFSGVPDRFSGSGSGTDFILKISRVEAEDLGVYFCSQNTHVPYTFGGGTRLEIK
notes: as for B1
B10: 6-D3 (antibody, V domains shown)
VH: QVQLQQPGAELVKPGASVKMSCKASGYTFTRHWITWVKQRPGQGLEWIGDIYPGSGRTNYNEKFKSTATLTVDTSSSTAYMQLSSLTSEDSAVYYCARDGYLYINYFDYWGQGTTLTVSS
VL: ENVLTQSPAIMSASPGEKVTMTCSASSSVSFMHWFQQKSSTSPKLWIYDTSKLASGVPGRFSGSGSGSSYSLTISSMAAEDVATYYCFQGSGYPYTFGGGTKLEIK
notes: Tested as a mouse monoclonal IgG; also called 6-D03
B11: 4-C5 (antibody, V domains shown)
VH: QVQLQQSGAELMKPGASVKISCKATGYTFSNYWIEWVKQRPGHGLEWIGEILPGSGSTNYNENFKGKATFTADTSSNTAYMQLSSLTSEDSAVYYCARRGAYGNFHYWGQGTTLTVSS
VL: EIVLTQSPALMAASPGEKVTITCSVSSSISSSNLHWYQQKSETSPKPWIYGTSNLASGVPVRFSGSGSGTSYSLTISSMEAEDAATYYCQQWRSYPYTFGGGTKLEIK
notes: Tested as a mouse monoclonal IgG; also called 4-C05
B12: 9-C4 (antibody, V domains shown)
VH: EVQLMESGGDLVKPGGSLKLSCAASGFTFSSYGLSWVRQTPDKRLEWVATITSGGSYTYYPDSVKGRFTISRDNARNTLYLQMFSLKSEDTAMYYCALWSLDYWGQGTTLTVSS
VL: QIVLTQSPAIMSASPGEKVTMTCSANSSLSYMHWYQQKPGTSPKRWIYDTSELASGVPARFSGSGSGTSYSLTISSMEAEDAATYYCHQRRSYPWTFGGGTKLEIK
notes: Tested as a mouse monoclonal IgG; also called 9-C04
B13: 3-M9 (antibody, V domains shown)
VH: EVQLQQSGAELVRPGASVKLSCTASDFNIKDDYIHWVKQRPEQGLEWIGRIDPANGNTKYAPKFQDKATITADTSSNTAYLQLSSLTSEDTAVYYCALGYTYWGQGTTLTVSS
VL: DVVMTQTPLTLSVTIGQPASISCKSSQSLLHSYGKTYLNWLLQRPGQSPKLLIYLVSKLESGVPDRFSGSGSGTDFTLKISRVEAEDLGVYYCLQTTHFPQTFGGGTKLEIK
notes: Tested as a mouse monoclonal IgG; also called 3-M09
B14: 9-K23 (antibody, V domains shown)
VH: QVTLKESGPGMLQPSQTLSLTCSFSGFSLNTYDVGVGWIRQPSGKGLEWLANIWWNDDKYYNSALKSRLTISKDTSNNQVFLKISSVDTADTATYYCTLYSYDGGFAYWGQGTLVTVSA
VL: QIVLTQSPAIMSASLGERVTMTCTASSSVSSSYLHWYQQKPGSSPKLWIYSTSNLASGVPARFSGSGSGTSYSLTISSMEAEDAATYYCHQYHRSPYTFGGGTKLEIK
notes: as for B1
B15: 3-M12 (antibody, V domains shown)
VH: DVQLQESGPGLVKPSQSLSLTCSVTGYSITSGYYWNWIRQFPGNKLEWMGYITFDGANNYNPSLKNRISITRDTSKNQFFLKLTSVTTEDTATYYCTRSSYDYDVLDYWGQGTTLTVSS
VL: DIQMTQTTSSLSASLGDRVTISCRASQDISNFLNWYQQRPDGTVKLLIYYTSRLHSGVPSRFSGSGSGTDFSLTVSNLEQEDIATYFCQQGHTLPYTFGGGTKLEIK
notes: as for B1

One assay addresses T2, human transferrin receptor 1 (human, UniProt P02786 89-760, limits assumed).
T2 construct: also called hTfR1; huTfR1
The assay is described as follows: average KD, antibody alone; method not given.
By Kd is commonly meant the constant that tells how readily two partners part at equilibrium. The molecule B1 returned a Kd of 1.27 nM.
B2: the Kd amounted to 0.0678 nM.
For B3, binding was characterised by a dissociation constant (Kd) of 9.15 nM.
Consider B4, for which the dissociation constant Kd was found to be 0.455 nM.
As to B5, the Kd was 202 nM.
The molecule B6 returned a Kd of 5.8 nM.
Same read-out and setting: then B7, with 2.24 nM; and B8, with 0.436 nM; and B9, with 3.41 nM.
In turn, B10 yielded a Kd of 0.986 nM.
Regarding B11, binding was characterised by a dissociation constant (Kd) of 1.38 nM.
In the case of B12, the affinity, expressed as Kd, was 14.8 nM.
Still for that read-out and setting: then B13, with 2.5 nM; and B14, with 0.32 nM; and B15, with 0.768 nM.

Another assay addresses T1, cynomolgus monkey transferrin receptor 1. The assay is described as follows: average KD, antibody alone; method not given.
Molecule B1 showed a Kd of 270 nM.
Same read-out and setting: under B2 stands 0.376 nM; under B3, 11.1 nM.
B4 showed a Kd of 0.671 nM.
For B5, the dissociation constant (Kd) was 12 nM.
B6: the Kd was found to be 0.868 nM.
B7: the Kd is 1.1 nM.
The molecule B8 displayed a Kd of 2.32 nM.
Take B9: the Kd turned out to be 1.37 nM.
In turn, B10 registered a Kd of 0.778 nM.
B11 had a Kd of 13.6 nM.
On to B12, for which the Kd worked out at 12 nM.
Turning to B13, the Kd stood at 4.37 nM.
For the molecule B14, the Kd stood at 0.662 nM.
On to B15, for which binding was put at a Kd of 5.18 nM.

The next assay concerns the target T2, human transferrin receptor 1. The assay is described as follows: Carterra LSA SPR array, IgG captured on anti-IgG lawn, hTfR1 as analyte, 25 C, 1:1 Langmuir fit. On the procedure:
Selected anti-TfR1 antibodies were tested for their binding affinity to human TfR1 for measurement of Ka (association rate constant), Kd (dissociation rate constant), and KD (affinity). […] The binding experiment was performed on Carterra LSA at 25 C. An anti-mouse IgG and anti-human IgG antibody “lawn” was prepared on a HC30M chip by amine coupling. 59 IgGs (58 mouse mAbs and 1 human mAb) were captured on the chip. Dilution series of hTfR1, cyTfR1, and hTfR2 were injected to the chip for binding (starting from 1000 nM, 1:3 dilution, 8 concentrations).
Binding data were referenced by subtracting the responses from a buffer analyte injection and globally fitting to a 1:1 Langmuir binding model for estimate of Ka (association rate constant), Kd (dissociation rate constant), and KD (affinity) using the Carterra™ Kinetics software. 5-6 concentrations were used for curve fitting.
In general, kon refers to the rate constant with which the complex forms. Molecule B1 returned a Kd of 1.8 nM and a kon of 79800 M⁻¹ s⁻¹.
B2 gave a Kd of 0.0694 nM and a kon of 144000 M⁻¹ s⁻¹.
Molecule B3 came in with a Kd of 8.22 nM and a kon of 31300 M⁻¹ s⁻¹.
In turn, B4 showed a Kd of 0.455 nM and a kon of 22000 M⁻¹ s⁻¹.
B5: the equilibrium dissociation constant (Kd) worked out at 208 nM and the kon was 66700 M⁻¹ s⁻¹.
As for B6, the Kd came out at 5.86 nM and the kon was 42000 M⁻¹ s⁻¹.
Molecule B7 yielded a Kd of 1.83 nM and a kon of 49900 M⁻¹ s⁻¹.
As to B8, the Kd is 0.436 nM and the kon was 447000 M⁻¹ s⁻¹.
Turning to B10, binding was put at a Kd of 0.986 nM and the kon worked out at 108000 M⁻¹ s⁻¹.
In turn, B11 came in with a Kd of 1.61 nM and a kon of 30100 M⁻¹ s⁻¹.
With B12, the Kd is 14.1 nM and the kon came to 41000 M⁻¹ s⁻¹.
On to B13, for which the Kd was found to be 2.54 nM and the kon was determined as 150000 M⁻¹ s⁻¹.
For B14, the Kd was 0.401 nM and the association rate constant (kon) stood at 54000 M⁻¹ s⁻¹.
For B15, in that order: 0.768 nM and 166000 M⁻¹ s⁻¹.

The values are drawn from US20230144436A1 (DYNE THERAPEUTICS, published 2023).
